Source: patent US20090099091A1 (Stanford University, published 2009)

Assays:
[1] = target: T1, Mushroom tyrosinase (mushroom, UniProt C7FF04 1-392); assay: cell-based or functional assay
[2] = target: T1, Mushroom tyrosinase; assay: cell-based or functional assay; remark: listed apart in the source

T1 sequence (C7FF04 1-392): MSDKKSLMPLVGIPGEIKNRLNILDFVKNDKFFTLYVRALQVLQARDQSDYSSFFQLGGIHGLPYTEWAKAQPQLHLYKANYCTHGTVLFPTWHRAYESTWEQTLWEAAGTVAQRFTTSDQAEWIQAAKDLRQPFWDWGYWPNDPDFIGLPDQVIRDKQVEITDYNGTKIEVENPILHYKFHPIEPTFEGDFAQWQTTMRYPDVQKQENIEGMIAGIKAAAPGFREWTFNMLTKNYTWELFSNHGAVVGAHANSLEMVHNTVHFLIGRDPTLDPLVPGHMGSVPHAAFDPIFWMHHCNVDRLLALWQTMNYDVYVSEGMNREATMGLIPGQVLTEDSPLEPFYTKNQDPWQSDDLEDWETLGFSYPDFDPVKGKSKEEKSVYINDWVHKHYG

Row | IC50 (inhibition of mushroom tyrosinase, dopachrome absorbance at 475 nM) [1] [µM] | IC50 (inhibition of mushroom tyrosinase) [2] [µM] | Binder
1 | 40 | 40 | YRSRKYSSWY [YRSRKYSSWY (YR peptide)]
2 | 3600 | – | KFEKKFEK [KFEKKFEK (KF peptide)]
